# In article PMC8307404, “Crystal Structure-Guided Design of Bisubstrate Inhibitors and Photoluminescent Probes for Protein Kinases of the PIM Family” (Molecules, 2021):
# Square brackets hold non-standard residues; d marks the D form. Peptide text beside a SMILES is read from it. * marks the point of attachment. X3 = O=C(CCCCCNCc1nc2c(sc3cc(Br)cnc32)c(=O)[nH]1)*
# What was measured:
# Assay in all cases: Kinase profiling (radiometric filter-binding)
# Type in all cases: biochemical
# MARK2 = MARK2 (Homo sapiens, UniProt Q7KZI7); settings: MARK2, 1 µM inhibitor; read-out: Residual activity, %
# Description: (§1) Kinase selectivity profiling was performed using the commercial service provided by the MRC PPU International Centre for Kinase Profiling (Dundee, UK) using a radiometric filter-binding assay. Kinases used for analysis were of human origin. The ATP concentration applied for inhibition measurements was at or below the ATP KM value of the particular PK. ARC-3125 and ARC-3126 were screened against 139 PKs, whereas compounds 1, 2, and 8 were screened against 140 PKs. The final total concentration of inhibitors in the selectivity panel was 1 µM. Residual activities were expressed as the percentage of retained activity compared to the control without inhibitor.
# SYK = SYK (Homo sapiens, UniProt P43405); settings: 1 µM inhibitor, read-out: Residual activity, %
# Description: as §1
# BTK = BTK (Homo sapiens, UniProt Q06187); settings: 1 µM inhibitor, read-out: Residual activity, %
# Description: as §1
# MNK1 = MNK1 (Homo sapiens, UniProt Q9BUB5); settings: MNK1, 1 µM inhibitor; read-out: Residual activity, %
# Description: as §1
# CAMKKb = CAMKKb (Homo sapiens, UniProt Q96RR4); settings: 1 µM inhibitor, read-out: Residual activity, %
# Description: as §1
# RSK1 = RSK1 (Homo sapiens, UniProt Q15418); settings: RSK1, 1 µM inhibitor; read-out: Residual activity, %
# Description: as §1
# TAO1 = biological target: T1, TAO1 (Homo sapiens, UniProt Q7L7X3); settings: TAO1, 1 µM inhibitor; read-out: Residual activity, %
# T1 sequence (Q7L7X3 1-1001): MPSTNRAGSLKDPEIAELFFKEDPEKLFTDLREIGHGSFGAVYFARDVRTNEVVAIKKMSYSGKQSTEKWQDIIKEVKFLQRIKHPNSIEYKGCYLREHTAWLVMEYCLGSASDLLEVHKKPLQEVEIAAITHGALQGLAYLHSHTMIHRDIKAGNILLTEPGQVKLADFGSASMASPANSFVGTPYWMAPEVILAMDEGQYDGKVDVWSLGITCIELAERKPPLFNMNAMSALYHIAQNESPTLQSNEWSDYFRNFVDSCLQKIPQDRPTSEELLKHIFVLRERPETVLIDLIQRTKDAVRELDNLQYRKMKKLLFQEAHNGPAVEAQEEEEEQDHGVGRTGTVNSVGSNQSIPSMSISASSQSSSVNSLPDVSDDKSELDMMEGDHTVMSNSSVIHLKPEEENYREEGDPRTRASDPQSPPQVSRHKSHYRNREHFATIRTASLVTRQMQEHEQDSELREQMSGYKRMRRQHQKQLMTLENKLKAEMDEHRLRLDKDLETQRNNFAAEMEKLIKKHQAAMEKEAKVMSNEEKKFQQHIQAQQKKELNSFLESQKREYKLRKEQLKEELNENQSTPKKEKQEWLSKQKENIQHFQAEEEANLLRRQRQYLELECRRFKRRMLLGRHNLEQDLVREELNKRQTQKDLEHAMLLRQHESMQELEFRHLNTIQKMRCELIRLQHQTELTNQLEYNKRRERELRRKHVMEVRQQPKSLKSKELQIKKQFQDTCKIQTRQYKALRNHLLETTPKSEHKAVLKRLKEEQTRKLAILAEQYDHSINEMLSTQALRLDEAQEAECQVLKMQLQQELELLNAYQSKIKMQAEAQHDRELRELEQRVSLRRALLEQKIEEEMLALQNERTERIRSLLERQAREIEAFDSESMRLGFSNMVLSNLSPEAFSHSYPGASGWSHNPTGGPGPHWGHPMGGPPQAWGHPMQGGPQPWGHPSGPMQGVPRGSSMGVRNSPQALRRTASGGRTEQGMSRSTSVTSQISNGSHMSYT
# Description: as §1
# DYRK1A = DYRK1A (Homo sapiens, UniProt Q13627); settings: 1 µM inhibitor, read-out: Residual activity, %
# Description: as §1
# SRPK1 = SRPK1 (Homo sapiens, UniProt Q96SB4); settings: SRPK1, 1 µM inhibitor; read-out: Residual activity, %
# Description: as §1
# CAMK1 = CAMK1 (Homo sapiens, UniProt Q14012); settings: CAMK1, 1 µM inhibitor; read-out: Residual activity, %
# Description: as §1
# IRAK1 = IRAK1 (Homo sapiens, UniProt P51617); settings: IRAK1, 1 µM inhibitor; read-out: Residual activity, %
# Description: as §1
# TBK1 = biological target: T2, TBK1 (Homo sapiens, UniProt Q9UHD2); settings: TBK1, 1 µM inhibitor; read-out: Residual activity, %
# T2 sequence (Q9UHD2 1-729): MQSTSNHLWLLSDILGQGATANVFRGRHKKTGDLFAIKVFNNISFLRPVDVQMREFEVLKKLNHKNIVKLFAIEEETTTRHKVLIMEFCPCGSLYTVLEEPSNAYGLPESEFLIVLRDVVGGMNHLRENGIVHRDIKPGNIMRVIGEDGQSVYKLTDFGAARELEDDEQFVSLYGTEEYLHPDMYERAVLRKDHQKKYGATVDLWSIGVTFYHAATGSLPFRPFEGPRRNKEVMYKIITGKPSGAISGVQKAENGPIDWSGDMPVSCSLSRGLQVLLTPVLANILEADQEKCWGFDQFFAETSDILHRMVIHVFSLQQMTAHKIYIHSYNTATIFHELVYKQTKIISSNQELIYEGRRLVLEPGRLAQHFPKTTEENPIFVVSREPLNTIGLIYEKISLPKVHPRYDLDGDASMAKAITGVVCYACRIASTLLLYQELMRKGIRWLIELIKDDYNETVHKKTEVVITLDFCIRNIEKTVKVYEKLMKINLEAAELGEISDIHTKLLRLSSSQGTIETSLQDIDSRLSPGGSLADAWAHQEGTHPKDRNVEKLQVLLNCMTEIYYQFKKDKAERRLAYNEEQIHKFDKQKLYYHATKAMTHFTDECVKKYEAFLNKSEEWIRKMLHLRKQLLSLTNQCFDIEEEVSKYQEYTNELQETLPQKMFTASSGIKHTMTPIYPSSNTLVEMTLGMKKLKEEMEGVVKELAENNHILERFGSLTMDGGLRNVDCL
# Description: as §1
# MLK1 = MLK1 (Homo sapiens, UniProt P80192); settings: MLK1, 1 µM inhibitor; read-out: Residual activity, %
# Description: as §1
# PKBβ = PKBβ (Homo sapiens, UniProt P31751); settings: PKB, second of two PKB lines (Greek letter lost; PKBβ), 1 µM inhibitor; read-out: Residual activity, %
# Description: as §1
# Sequence of RSK1 (Q15418 whole entry): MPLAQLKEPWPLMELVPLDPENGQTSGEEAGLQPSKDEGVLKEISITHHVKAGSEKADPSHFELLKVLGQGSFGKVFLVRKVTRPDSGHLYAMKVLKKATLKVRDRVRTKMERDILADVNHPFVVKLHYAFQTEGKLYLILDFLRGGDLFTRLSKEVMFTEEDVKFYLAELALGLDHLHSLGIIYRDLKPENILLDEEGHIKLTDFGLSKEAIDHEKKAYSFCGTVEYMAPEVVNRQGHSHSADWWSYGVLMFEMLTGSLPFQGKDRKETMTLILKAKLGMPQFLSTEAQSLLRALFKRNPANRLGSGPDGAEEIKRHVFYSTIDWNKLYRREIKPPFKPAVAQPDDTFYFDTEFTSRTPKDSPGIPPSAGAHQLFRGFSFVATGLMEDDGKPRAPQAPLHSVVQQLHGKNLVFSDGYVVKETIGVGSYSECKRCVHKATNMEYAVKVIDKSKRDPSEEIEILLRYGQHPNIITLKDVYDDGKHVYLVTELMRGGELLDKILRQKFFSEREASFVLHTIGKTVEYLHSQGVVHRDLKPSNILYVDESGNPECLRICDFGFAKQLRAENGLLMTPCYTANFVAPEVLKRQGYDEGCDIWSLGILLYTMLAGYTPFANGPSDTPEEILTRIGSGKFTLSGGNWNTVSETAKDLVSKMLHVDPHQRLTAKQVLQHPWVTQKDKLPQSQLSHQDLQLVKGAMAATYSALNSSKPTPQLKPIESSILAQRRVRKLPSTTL
# Sequence of BTK (Q06187 whole entry): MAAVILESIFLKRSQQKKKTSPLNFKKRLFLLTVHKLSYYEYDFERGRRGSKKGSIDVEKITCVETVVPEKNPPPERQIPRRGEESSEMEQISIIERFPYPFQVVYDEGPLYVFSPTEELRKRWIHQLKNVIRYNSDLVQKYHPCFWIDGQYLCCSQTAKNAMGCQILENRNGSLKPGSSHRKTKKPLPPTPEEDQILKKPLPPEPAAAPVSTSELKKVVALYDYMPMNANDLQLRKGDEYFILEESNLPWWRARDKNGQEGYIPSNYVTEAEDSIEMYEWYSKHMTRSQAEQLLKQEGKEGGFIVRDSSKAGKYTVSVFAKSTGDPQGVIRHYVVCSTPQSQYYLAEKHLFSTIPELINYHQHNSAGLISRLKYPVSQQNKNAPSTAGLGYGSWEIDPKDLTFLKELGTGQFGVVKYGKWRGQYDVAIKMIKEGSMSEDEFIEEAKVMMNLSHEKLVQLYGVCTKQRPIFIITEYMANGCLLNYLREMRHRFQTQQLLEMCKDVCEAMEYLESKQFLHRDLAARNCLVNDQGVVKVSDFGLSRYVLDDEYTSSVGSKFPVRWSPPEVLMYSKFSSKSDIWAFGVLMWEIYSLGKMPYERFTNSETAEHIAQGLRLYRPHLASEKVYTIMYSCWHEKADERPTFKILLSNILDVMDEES
# Sequence of MARK2 (Q7KZI7 whole entry): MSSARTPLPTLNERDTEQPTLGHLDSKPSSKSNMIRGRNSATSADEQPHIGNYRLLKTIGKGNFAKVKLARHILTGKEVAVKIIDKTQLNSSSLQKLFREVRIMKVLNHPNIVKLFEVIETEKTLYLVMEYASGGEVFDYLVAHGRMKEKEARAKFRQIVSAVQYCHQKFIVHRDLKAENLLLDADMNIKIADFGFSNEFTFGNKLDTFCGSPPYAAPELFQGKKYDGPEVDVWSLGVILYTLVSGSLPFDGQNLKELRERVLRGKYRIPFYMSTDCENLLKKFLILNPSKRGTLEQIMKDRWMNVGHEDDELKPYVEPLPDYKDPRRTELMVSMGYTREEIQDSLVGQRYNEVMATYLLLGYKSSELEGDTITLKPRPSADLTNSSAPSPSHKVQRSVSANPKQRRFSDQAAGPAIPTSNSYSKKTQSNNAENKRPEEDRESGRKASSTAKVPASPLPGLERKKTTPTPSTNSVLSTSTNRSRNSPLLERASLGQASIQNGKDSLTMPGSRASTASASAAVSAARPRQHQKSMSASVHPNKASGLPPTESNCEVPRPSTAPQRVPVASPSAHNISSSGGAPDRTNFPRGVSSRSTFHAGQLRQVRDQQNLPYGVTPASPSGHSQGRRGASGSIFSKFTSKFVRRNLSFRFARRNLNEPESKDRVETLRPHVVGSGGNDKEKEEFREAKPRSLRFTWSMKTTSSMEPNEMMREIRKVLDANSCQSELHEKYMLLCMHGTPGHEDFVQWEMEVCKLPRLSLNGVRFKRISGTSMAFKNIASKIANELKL
# Sequence of CAMK1 (Q14012 whole entry): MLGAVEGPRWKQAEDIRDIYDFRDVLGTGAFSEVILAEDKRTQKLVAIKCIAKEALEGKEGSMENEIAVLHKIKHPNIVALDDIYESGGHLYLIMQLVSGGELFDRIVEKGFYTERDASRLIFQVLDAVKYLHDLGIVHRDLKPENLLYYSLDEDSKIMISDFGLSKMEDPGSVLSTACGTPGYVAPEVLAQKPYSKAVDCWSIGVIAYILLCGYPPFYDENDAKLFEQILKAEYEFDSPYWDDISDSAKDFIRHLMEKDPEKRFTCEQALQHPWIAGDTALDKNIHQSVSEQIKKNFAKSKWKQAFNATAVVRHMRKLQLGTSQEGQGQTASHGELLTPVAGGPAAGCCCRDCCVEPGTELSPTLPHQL
# Sequence of IRAK1 (P51617 whole entry): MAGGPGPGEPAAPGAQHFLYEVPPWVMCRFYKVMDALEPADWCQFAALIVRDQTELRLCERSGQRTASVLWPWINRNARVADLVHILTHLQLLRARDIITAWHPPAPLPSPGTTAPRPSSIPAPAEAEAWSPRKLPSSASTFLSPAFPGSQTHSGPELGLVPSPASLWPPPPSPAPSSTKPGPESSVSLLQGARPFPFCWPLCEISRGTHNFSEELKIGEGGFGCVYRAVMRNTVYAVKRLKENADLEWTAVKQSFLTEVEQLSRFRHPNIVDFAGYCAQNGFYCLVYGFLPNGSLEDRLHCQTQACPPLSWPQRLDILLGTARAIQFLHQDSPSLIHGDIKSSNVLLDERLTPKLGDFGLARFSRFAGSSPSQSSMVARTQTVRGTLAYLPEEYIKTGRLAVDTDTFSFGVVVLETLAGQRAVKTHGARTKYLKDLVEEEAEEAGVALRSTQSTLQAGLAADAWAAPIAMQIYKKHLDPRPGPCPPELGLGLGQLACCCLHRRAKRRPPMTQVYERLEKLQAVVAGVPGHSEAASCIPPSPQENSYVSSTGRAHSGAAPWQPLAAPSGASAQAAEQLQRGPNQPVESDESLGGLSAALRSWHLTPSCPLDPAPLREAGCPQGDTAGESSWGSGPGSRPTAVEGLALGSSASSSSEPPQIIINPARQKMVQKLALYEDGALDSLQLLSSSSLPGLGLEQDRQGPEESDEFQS
# Sequence of PKBβ (P31751 whole entry): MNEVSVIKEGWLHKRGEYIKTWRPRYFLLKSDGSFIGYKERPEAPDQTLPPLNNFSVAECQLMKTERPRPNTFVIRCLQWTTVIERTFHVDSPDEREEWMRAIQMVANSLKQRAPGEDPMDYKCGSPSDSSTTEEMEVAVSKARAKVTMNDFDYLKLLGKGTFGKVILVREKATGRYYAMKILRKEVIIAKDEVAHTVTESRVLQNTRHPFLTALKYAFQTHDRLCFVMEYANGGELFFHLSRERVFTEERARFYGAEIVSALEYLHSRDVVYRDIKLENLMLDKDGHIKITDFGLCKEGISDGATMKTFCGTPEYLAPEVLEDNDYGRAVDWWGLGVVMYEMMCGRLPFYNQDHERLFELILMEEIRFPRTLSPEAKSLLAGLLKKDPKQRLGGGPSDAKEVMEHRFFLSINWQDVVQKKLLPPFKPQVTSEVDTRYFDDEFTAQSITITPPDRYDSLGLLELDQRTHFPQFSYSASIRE
# Sequence of CAMKKb (Q96RR4 whole entry): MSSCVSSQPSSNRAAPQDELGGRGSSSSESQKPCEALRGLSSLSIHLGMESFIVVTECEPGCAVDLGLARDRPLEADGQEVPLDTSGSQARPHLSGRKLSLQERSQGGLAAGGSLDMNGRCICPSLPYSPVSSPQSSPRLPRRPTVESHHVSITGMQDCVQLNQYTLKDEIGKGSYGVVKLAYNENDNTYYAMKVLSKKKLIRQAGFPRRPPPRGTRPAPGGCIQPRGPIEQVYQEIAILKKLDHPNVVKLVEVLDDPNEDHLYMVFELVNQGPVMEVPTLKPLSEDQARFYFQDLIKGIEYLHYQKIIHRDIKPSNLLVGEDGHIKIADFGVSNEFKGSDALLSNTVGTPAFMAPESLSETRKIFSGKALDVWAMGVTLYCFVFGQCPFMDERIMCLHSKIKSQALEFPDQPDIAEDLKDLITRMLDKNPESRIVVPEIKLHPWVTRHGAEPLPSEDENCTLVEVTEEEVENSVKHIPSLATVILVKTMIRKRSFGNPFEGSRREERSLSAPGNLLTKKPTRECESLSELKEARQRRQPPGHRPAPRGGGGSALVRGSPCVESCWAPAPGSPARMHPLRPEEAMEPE
# Sequence of MNK1 (Q9BUB5 whole entry): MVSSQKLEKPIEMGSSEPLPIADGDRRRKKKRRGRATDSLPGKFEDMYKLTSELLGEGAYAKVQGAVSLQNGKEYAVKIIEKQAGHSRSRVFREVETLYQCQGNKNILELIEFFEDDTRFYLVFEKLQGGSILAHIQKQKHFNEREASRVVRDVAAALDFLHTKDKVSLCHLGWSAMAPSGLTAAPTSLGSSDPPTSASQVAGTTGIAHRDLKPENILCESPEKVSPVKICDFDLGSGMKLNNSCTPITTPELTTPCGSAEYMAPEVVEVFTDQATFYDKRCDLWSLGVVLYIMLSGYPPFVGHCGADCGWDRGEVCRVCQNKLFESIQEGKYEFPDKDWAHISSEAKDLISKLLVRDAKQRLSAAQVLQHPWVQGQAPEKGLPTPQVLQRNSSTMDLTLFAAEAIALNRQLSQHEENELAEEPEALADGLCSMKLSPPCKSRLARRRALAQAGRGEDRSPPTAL
compound,measurement,setting,value
"N=C(N)NCCC[C@@H](NC(=O)CCCCCNC(=O)Cn1cnc2c(I)c(I)c(I)c(I)c21)C(=O)N[C@H](CCCNC(=N)N)C(=O)N[C@H](CCCNC(=N)N)C(=O)N[C@H](CCCNC(=N)N)C(=O)N[C@H](CCCNC(=N)N)C(=O)N[C@H](CCCNC(=N)N)C(=O)N[C@H](CCCCN)C(N)=O [ARC-3125, TIBI-CH2-C(=O)-Ahx-(D-Arg)6-D-Lys-NH2]",remaining activity at 1 µM,MARK2,86 ± 4%
same,remaining activity at 1 µM,SYK,94 ± 10%
same,remaining activity at 1 µM,BTK,31 ± 2%
same,remaining activity at 1 µM,MNK1,67 ± 4%
same,remaining activity at 1 µM,CAMKKb,47 ± 1%
same,remaining activity at 1 µM,RSK1,19 ± 1%
same,remaining activity at 1 µM,TAO1,32 ± 6%
same,remaining activity at 1 µM,DYRK1A,28 ± 7%
same,remaining activity at 1 µM,SRPK1,54 ± 1%
same,remaining activity at 1 µM,CAMK1,3 ± 11%
same,remaining activity at 1 µM,IRAK1,16 ± 3%
same,remaining activity at 1 µM,TBK1,68 ± 3%
same,remaining activity at 1 µM,MLK1,100 ± 8%
same,remaining activity at 1 µM,PKBβ,1 ± 1%
"CN(C)c1ccc2c(c1)Oc1cc(N(C)C)ccc1C21OC(=O)c2cc(C(=O)NCCCC[C@@H](NC(=O)[C@@H](CCCNC(=N)N)NC(=O)CNC(=O)[C@@H](CCCNC(=N)N)NC(=O)[C@@H](CCCNC(=N)N)NC(=O)CCCCc3cn(Cc4nc5c(sc6ccc(Br)cc65)c(=O)[nH]4)nn3)C(N)=O)ccc21 [Compound 8, BBTP-Tap-(D-Arg)2-Gly-D-Arg-[D-Lys(5-TAMRA)]-NH2]",remaining activity at 1 µM,RSK1,74%
same,remaining activity at 1 µM,TAO1,80%
same,remaining activity at 1 µM,DYRK1A,37%
same,remaining activity at 1 µM,CAMK1,49%
same,remaining activity at 1 µM,TBK1,46%
same,remaining activity at 1 µM,PKBβ,54%
"N=C(N)NCCC[C@@H](NC(=O)CNC(=O)[C@@H](CCCNC(=N)N)NC(=O)[C@@H](CCCNC(=N)N)NC(=O)CCCCCCCNCc1nc2c(sc3cc(Br)cnc32)c(=O)[nH]1)C(=O)N[C@H](CCCCN)C(N)=O [Compound 1, BPTP-Aoc-(D-Arg)2-Gly-D-Arg-D-Lys-NH2]",remaining activity at 1 µM,MARK2,106 ± 10%
same,remaining activity at 1 µM,SYK,133 ± 15%
same,remaining activity at 1 µM,BTK,106 ± 10%
same,remaining activity at 1 µM,MNK1,102 ± 3%
same,remaining activity at 1 µM,CAMKKb,117 ± 1%
same,remaining activity at 1 µM,RSK1,95%
same,remaining activity at 1 µM,TAO1,106 ± 10%
same,remaining activity at 1 µM,DYRK1A,74%
same,remaining activity at 1 µM,SRPK1,102 ± 1%
same,remaining activity at 1 µM,CAMK1,81 ± 18%
same,remaining activity at 1 µM,IRAK1,131 ± 17%
same,remaining activity at 1 µM,TBK1,113 ± 29%
same,remaining activity at 1 µM,MLK1,112 ± 13%
same,remaining activity at 1 µM,PKBβ,115 ± 26%
"N=C(N)NCCC[C@@H](NC(=O)CNC(=O)[C@@H](CCCNC(=N)N)NC(=O)[C@@H](CCCNC(=N)N)NC(=O)CCCCCCCNCc1nc2c(sc3ccc(Br)cc32)c(=O)[nH]1)C(=O)N[C@H](CCCCN)C(N)=O [Compound 2, BBTP-Aoc-(D-Arg)2-Gly-D-Arg-D-Lys-NH2]",remaining activity at 1 µM,MARK2,107 ± 4%
same,remaining activity at 1 µM,SYK,123 ± 3%
same,remaining activity at 1 µM,BTK,99 ± 20%
same,remaining activity at 1 µM,MNK1,66 ± 7%
same,remaining activity at 1 µM,CAMKKb,108 ± 1%
same,remaining activity at 1 µM,RSK1,31%
same,remaining activity at 1 µM,TAO1,49%
same,remaining activity at 1 µM,DYRK1A,5%
same,remaining activity at 1 µM,SRPK1,113 ± 7%
same,remaining activity at 1 µM,CAMK1,81%
same,remaining activity at 1 µM,IRAK1,134 ± 21%
same,remaining activity at 1 µM,TBK1,113%
same,remaining activity at 1 µM,MLK1,98 ± 8%
same,remaining activity at 1 µM,PKBβ,101%
"N=C(N)NCCC[C@@H](NC(=O)CCCCCNCc1nc2c(sc3cc(Br)cnc32)c(=O)[nH]1)C(=O)N[C@H](CCCNC(=N)N)C(=O)N[C@H](CCCNC(=N)N)C(=O)N[C@H](CCCNC(=N)N)C(=O)N[C@H](CCCNC(=N)N)C(=O)N[C@H](CCCNC(=N)N)C(=O)N[C@H](CCCCN)C(N)=O [ARC-3126, BPTP-Ahx-(D-Arg)6-D-Lys-NH2] (X3-[dR][dR][dR][dR][dR][dR][dK]-NH2)",remaining activity at 1 µM,MARK2,103 ± 7%
same,remaining activity at 1 µM,SYK,75 ± 20%
same,remaining activity at 1 µM,BTK,43 ± 2%
same,remaining activity at 1 µM,MNK1,89 ± 5%
same,remaining activity at 1 µM,CAMKKb,104 ± 13%
same,remaining activity at 1 µM,RSK1,82 ± 10%
same,remaining activity at 1 µM,TAO1,95 ± 3%
same,remaining activity at 1 µM,DYRK1A,99 ± 6%
same,remaining activity at 1 µM,SRPK1,89 ± 5%
same,remaining activity at 1 µM,CAMK1,55 ± 9%
same,remaining activity at 1 µM,IRAK1,120 ± 2%
same,remaining activity at 1 µM,TBK1,105 ± 12%
same,remaining activity at 1 µM,MLK1,122 ± 21%
same,remaining activity at 1 µM,PKBβ,86 ± 10%
"N=C(N)NCCC[C@@H](NC(=O)CNC(=O)[C@@H](CCCNC(=N)N)NC(=O)[C@@H](CCCNC(=N)N)NC(=O)Cn1cc(CNCc2nc3c(sc4ccc(Br)cc43)c(=O)[nH]2)nn1)C(=O)N[C@H](CCCCN)C(N)=O [Compound 3, BBTP-Amt-(D-Arg)2-Gly-D-Arg-D-Lys-NH2]",remaining activity at 1 µM,MARK2,79%
same,remaining activity at 1 µM,SYK,114 ± 2%
same,remaining activity at 1 µM,BTK,82 ± 1%
same,remaining activity at 1 µM,MNK1,89 ± 8%
same,remaining activity at 1 µM,CAMKKb,85 ± 4%
same,remaining activity at 1 µM,RSK1,74 ± 12%
same,remaining activity at 1 µM,TAO1,80 ± 4%
same,remaining activity at 1 µM,DYRK1A,37 ± 15%
same,remaining activity at 1 µM,SRPK1,91 ± 2%
same,remaining activity at 1 µM,CAMK1,49 ± 11%
same,remaining activity at 1 µM,IRAK1,113 ± 11%
same,remaining activity at 1 µM,TBK1,46 ± 4%
same,remaining activity at 1 µM,MLK1,101 ± 9%
same,remaining activity at 1 µM,PKBβ,54 ± 6%
